Measured values: patent US7408028B2, “Peptides, antibodies thereto, and their use in treatment of central nervous system, damage” (Sinapore General Hospital Pte Ltd., priority 2002, dated 2008)

Columns and labels:
[1] = molecular target: T1, TNR-EGFL (Homo sapiens, UniProt Q92752); experiment: Phage display panning (Ph.D-7 library), clones identified by ELISA and sequencing; type: binding; details: target TNR-EGFL, 3-4 rounds of affinity selection
T1 construct: GST; made in house
T1 sequence (Q92752 125-329): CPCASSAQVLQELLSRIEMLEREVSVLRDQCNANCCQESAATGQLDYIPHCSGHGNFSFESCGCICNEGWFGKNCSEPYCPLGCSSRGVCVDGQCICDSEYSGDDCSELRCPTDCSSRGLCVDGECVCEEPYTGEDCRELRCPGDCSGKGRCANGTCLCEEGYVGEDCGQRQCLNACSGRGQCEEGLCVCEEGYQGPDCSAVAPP
Description: (§1) Purification of TN-R, MAG and Nogo from adult mouse brains was performed by immumoaffinity chromatography as previously described (Pesheva, P et al, 1989). Generation and purification of the recombinant domains of TN-R, MAG, Nogo as fusion proteins with GST were performed as previously described (Xiao Z C et al, 1996). All these proteins were used as phage binding targets for rapid screening, using the Ph. D-7TM phage display peptide library kit (New England Biolabs, Ltd) according to the manufacturer's instructions.
(§2) Briefly, a library of phages, displaying different peptide sequences, was exposed to a plate coated with the target protein. Unbound phage was washed away and specifically bound phage was eluted by lowering pH. The eluted pool of phage was amplified, and the process was repeated 3-4 times.
(§3) The peptide-encoding sequences of the specific phage clones were determined by automated sequencing. The sequences of peptides which bound specifically to the targeted proteins were obtained.
(§4) Exemplary 7-mer peptide-endcoding sequences are shown below. “n” refers to the number of isolated phages displaying a peptide having the sequence shown (though there was of course some variability in the encoding nucleic acid sequences, owing to the degeneracy of the genetic code). “SIN” is an abbreviation for “SEQ ID NO.” and refers to the peptide sequence. The SEQ ID NOS of the nucleic acid sequences from the top to the bottom of the table are as follows: SEQ ID NO: 28, SEQ ID NO: 29, SEQ ID NO: 30, SEQ ID NO: 31, SEQ ID NO: 32, SEQ ID NO: 29, SEQ ID NO: 33. SEQ ID NO: 28, SEQ ID NO: 34, SEQ ID NO: 35.

[2] = molecular target: T2, Nogo-66 (Homo sapiens, UniProt Q9NQC3); experiment: as above; type: binding; parameters: GST; made in house; details: target Nogo-66, 3-4 rounds of affinity selection
T2 sequence (Q9NQC3 1055-1120): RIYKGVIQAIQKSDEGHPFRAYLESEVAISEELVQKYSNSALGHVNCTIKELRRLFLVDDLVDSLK
Description: as §1, §2, §3, §4

[3] = molecular target: T3, MAG (Mus musculus, UniProt P20917); experiment: as above; type: binding; details: target MAG, 3-4 rounds of affinity selection
T3 construct: from tissue; host or cells: adult mouse brain
T3 sequence (P20917 20-627): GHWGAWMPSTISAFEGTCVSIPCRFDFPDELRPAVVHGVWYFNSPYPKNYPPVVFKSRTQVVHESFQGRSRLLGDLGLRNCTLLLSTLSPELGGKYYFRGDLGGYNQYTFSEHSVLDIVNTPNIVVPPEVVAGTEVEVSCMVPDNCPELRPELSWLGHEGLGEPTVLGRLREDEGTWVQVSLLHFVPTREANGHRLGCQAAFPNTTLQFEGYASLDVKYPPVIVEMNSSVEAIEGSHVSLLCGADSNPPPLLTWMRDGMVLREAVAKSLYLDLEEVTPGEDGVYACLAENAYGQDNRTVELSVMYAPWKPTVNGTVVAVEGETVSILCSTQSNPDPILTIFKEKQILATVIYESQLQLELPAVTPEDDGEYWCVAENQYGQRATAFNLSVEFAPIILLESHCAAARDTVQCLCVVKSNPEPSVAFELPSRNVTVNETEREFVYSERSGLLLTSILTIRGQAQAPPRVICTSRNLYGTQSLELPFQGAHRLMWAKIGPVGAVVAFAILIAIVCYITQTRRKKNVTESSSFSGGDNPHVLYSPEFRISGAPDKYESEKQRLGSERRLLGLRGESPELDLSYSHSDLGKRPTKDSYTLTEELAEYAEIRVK
Description: as §1, §2, §3, §4

[4] = tested on: TNR-EGFL; experiment: Phage blocking of the inhibitory effect on NG108 cell adhesion; type: cell-based; details: peptide displayed on phage, 24 hours
Description: (§5) NG108 cells were plated on poly-DL-ornithine-treated tissue culture petri dish as single-cell suspensions. Specific phages that display the Nogo66-, MAG- and TNR-binding peptides identified above were added to the cell culture. Cells were maintained for 24 hours before fixation and staining with toluidine blue. Cell adhesion was determined as previously described.

[5] = molecular target: T3, MAG; experiment: as above; type: cell-based; details: peptide displayed on phage, 24 hours
Description: as §5

[6] = molecular target: T2, Nogo-66; experiment: as above; type: cell-based; parameters: made in house; details: peptide displayed on phage, 24 hours
Description: as §5

[7] = tested on: postnatal day 1 hippocampal neurons; details: coated protein; cited from earlier work
[8] = tested on: NG108 cells; experiment: Neuronal cell adhesion to protein spots on nitrocellulose-coated dishes; type: cell-based, mouse neuroblastoma—rat glioma hybrid cells; details: spots 5 μM GST-Nogo66, 100 μM Nogo66, Nogol-50, Nogol-25; 12 hours; p<0.05
Description: Tissue culture petri dishes (Becton Dickinson) with a diameter of 3.5 cm were coated with methanol-solubilized nitrocellulose according to Lagenaur and Lemmon (1987) and air-dried under a sterile hood. Then the petri dishes were incubated with PBS containing 5 μg/ml poly-DL-ornithine for 2 hours at 37° C. Subsequently, the dishes were washed three times with PBS and dried under a sterile hood.
Protein spots (1.5 μl of 5 μM GST, 5 μM GST-Nogo66, 100 μM Nogo66, 100 μM Nogol-50 or 100 μM Nogol-25) were applied to the nitrocellulose-coated surfaces of the petri dishes and incubated for 2 hours at 37° C. in a humidified atmosphere. Subsequently, the spots were washed three times with PBS. The dishes were then flooded with PBS containing 2% heat-inactivated fatty acid-free BSA (Sigma) and incubated overnight to block residual non-specific protein binding sites.
Then, the dishes were washed with PBS and NG108 cells were plated in 2 ml of Dulbecco's modified Eagle's medium containing 10% fetal bovine serum at a density of 2.5×10^5 cells/ml and incubated at 37° C. in a humidified atmosphere. After 12 hours, the dishes were gently washed three times with PBS and the cells fixed by flooding with PBS containing 2.5% glutaraldehyde. After fixation, cultures were stained with 0.5% toluidine blue (Sigma) in 2.5% sodium carbonate. […]
Cells adhering to the various spots were photographed and counted. […]

[9] = tested on: NG108 cells; experiment: Repulsion assay on coated Nogo domain substrates; type: cell-based, mouse neuroblastoma—rat glioma hybrid cells; details: GST as control
Description: NG108 cells (mouse neuroblastoma—rat glioma hybrid cells, commercially available from the American Tissue Type Culture Collection, Manassas, Va., USA, under accession number ATCC HB-12317) were plated on coated substrates using Nogol-25, Nogol-50, Nogol-66 and GST-Nogo-66 as well as GST as control. Generation and purification of the recombinant domains of Nogo, either alone or as fusion proteins with GST, were performed as previously described (Xiao Z C et al, 1996).

[10] = tested on: NG108 cells; experiment: Neurite outgrowth assay on coated Nogo domain substrates; type: cell-based, mouse neuroblastoma—rat glioma hybrid cells; details: coated substrate, GST as control
Description: NG108 cells were plated on coated substrates using Nogol-25, Nogol-50, Nogol-66, and GST-Nogo-66 as well as GST as control.

HSIPDNI (From a phage library that displays random 7-mers)
n, number of isolated phages displaying the peptide [1]: HSIPDNI (n = 3) | n, number of isolated phages displaying the peptide ([1]; listed as SEQ ID NO. 4): 3

HHMPHDK (From a phage library that displays random 7-mers)
n, number of isolated phages displaying the peptide [1]: HHMPHDK (n = 1) | n, number of isolated phages displaying the peptide ([1]; listed as SEQ ID NO. 5): 1

GSLPHSL (From a phage library that displays random 7-mers)
n, number of isolated phages displaying the peptide [1]: GSLPHSL (n = 1) | n, number of isolated phages displaying the peptide [2]: GSLPHSL (n = 8) | n, number of isolated phages displaying the peptide ([2]; listed as SEQ ID NO. 2): 8

YTTPPSP (From a phage library that displays random 7-mers)
n, number of isolated phages displaying the peptide [1]: YTTPPSP (n = 1) | n, number of isolated phages displaying the peptide ([1]; listed as SEQ ID NO. 6): 1

QLPLMPR (From a phage library that displays random 7-mers)
n, number of isolated phages displaying the peptide [3]: QLPLMPR (n = 5) | n, number of isolated phages displaying the peptide ([3]; listed as SEQ ID NO. 7): 5

TQLFPPQ (From a phage library that displays random 7-mers)
n, number of isolated phages displaying the peptide [1]: TQLFPPQ (n = 18) | n, number of isolated phages displaying the peptide ([1]; listed as SEQ ID NO. 3): 18 | n, number of isolated phages displaying the peptide [3]: TQLFPPQ (n = 7) | Block of the inhibitory effect of TNR-EGFL on NG108 cell binding [4]: able to block | Block of the inhibitory effect of TNR-EGFL on NG108 cell binding ([4]; listed as SEQ ID NO. 3): block

YLTQPQS (From a phage library that displays random 7-mers)
n, number of isolated phages displaying the peptide [3]: YLTQPQS (n = 19) | n, number of isolated phages displaying the peptide ([3]; listed as SEQ ID NO. 1): 19 | n, number of isolated phages displaying the peptide [2]: YLTQPQS (n = 43) | n, number of isolated phages displaying the peptide ([2]; listed as SEQ ID NO. 1): 43 | Block of the inhibitory effect of MAG on NG108 cell binding [5]: able to block | Block of the inhibitory effect of MAG on NG108 cell binding ([5]; listed as SEQ ID NO. 1): block | Block of the inhibitory effect of Nogo-66 on NG108 cell binding [6]: able to block | Block of the inhibitory effect of Nogo-66 on NG108 cell binding ([6]; listed as SEQ ID NO. 1): block

B1: rMAG: coated recombinant MAG (protein, UniProt P20916 20-626, looked up)
Myelin-associated glycoprotein: GHWGAWMPSSISAFEGTCVSIPCRFDFPDELRPAVVHGVWYFNSPYPKNYPPVVFKSRTQVVHESFQGRSRLLGDLGLRNCTLLLSNVSPELGGKYYFRGDLGGYNQYTFSEHSVLDIVNTPNIVVPPEVVAGTEVEVSCMVPDNCPELRPELSWLGHEGLGEPAVLGRLREDEGTWVQVSLLHFVPTREANGHRLGCQASFPNTTLQFEGYASMDVKYPPVIVEMNSSVEAIEGSHVSLLCGADSNPPPLLTWMRDGTVLREAVAESLLLELEEVTPAEDGVYACLAENAYGQDNRTVGLSVMYAPWKPTVNGTMVAVEGETVSILCSTQSNPDPILTIFKEKQILSTVIYESELQLELPAVSPEDDGEYWCVAENQYGQRATAFNLSVEFAPVLLLESHCAAARDTVQCLCVVKSNPEPSVAFELPSRNVTVNESEREFVYSERSGLVLTSILTLRGQAQAPPRVICTARNLYGAKSLELPFQGAHRLMWAKIGPVGAVVAFAILIAIVCYITQTRRKKNVTESPSFSAGDNPPVLFSSDFRISGAPEKYESERRLGSERRLLGLRGEPPELDLSYSHSDLGKRPTKDSYTLTEELAEYAEIRVK
Axonal growth cones collapsed [7]: 60%

B2: denatured rMAG: denatured recombinant MAG (protein, UniProt P20916 20-626, looked up)
Myelin-associated glycoprotein: B1 Myelin-associated glycoprotein
modifications: denatured recombinant
notes: denatured recombinant MAG
Axonal growth cones collapsed [7]: not observed

B3: Nogol-66: recombinant domain of Nogo (66-residue extracellular domain) used as coated substrate (protein)
chain: T2 sequence (Q9NQC3 1055-1120)
modifications: not fully specified
notes: recombinant domain of Nogo (66-residue extracellular domain) used as coated substrate
NG108 cell counts adhering to protein spot compared to GST [8]: significantly reduced | NG108 cells repelled from coated substrate [9]: repelled significantly | Neurite outgrowth of NG108 cells inhibited [10]: inhibited significantly

B4: GST-Nogo-66: recombinant Nogo-66 domain as fusion protein with GST (protein)
chain: T2 sequence (Q9NQC3 1055-1120)
modifications: also: fused to GST
notes: recombinant Nogo-66 domain as fusion protein with GST
NG108 cell counts adhering to protein spot compared to GST [8]: significantly reduced | NG108 cells repelled from coated substrate [9]: repelled significantly | Neurite outgrowth of NG108 cells inhibited [10]: inhibited significantly
